The DeepSol protein solubility set

Experiment: soluble on expression in E. coli; label from the status in PepcDB or PDB records

| Sequence | soluble on expression in E. coli |
| --- | --- |
| MGSDKIHHHHHHMSYGYDKNADDIMKNADHIFEIKGIMRFPDRLKESIGDISIRSFAKKCGLSEGVMRNYLAGKTYPSLDKLALMAEVSNKPLDWLVAGTEHNFNELNEPGSKYVIGINLEEYALIPGYRVQVSAGHGALNCDQQDPVRYLAFRRKWLKYRGFEEHELAIVWAKGDSMEPTIHSNDTLVVHLGRNSPADGHIYIFRNGDDLFVKRYQNAFGSWRLISDNPVYDKLDIPKHEQHQFEVVGQVVHIAKDIGD | not soluble |
| MKKDIILSGVGGQGILSIATVIGKAALKEGLYMKQAEVHGMSQRGGDVQSNLRISDKPIASDLIPSGKCDLIISLEPMEGLRYLPYLSPEGWLVTNETPFVNIPNYPEEDKVMAEINKLPHKIVLNVDKVAKEVGSARVANIVLLGATIPFLGIDYEKVQDSIREIFLRKGEAIVEMNLKALAAGKEIAEKLMQ | not soluble |
| MIGRRHPYYPYLEAALEAASLARGIHLYYLEKGFTEGTKSGPTDLVTQADREAEEAVKGLLLSRFPEAGFLGEEGGSEGGKALRFIVDPLDGTVNYAHGFPFFAVSIALEAESAIQMGVVMDTARGEVFYALRGEGAYLNGRPIRVTGRESLVGSLLATGFPYDVAKDPENLTYFERALRKGLLVRRPGAAALDLAYVAAGRLEGFWEVKLNPWDVAAGWLLVEEAGGRVTDLEGNPYRLGSRYILATNGRVHEALRRTLLGLD | soluble |
| SSGLVPRGSHMSEMIYGIHAVQALLERAPERFQEVFILKGREDKRLLPLIHALESQGVVIQLANRQYLDEKSDGAVHQGIIARVKPGRQYQENDLPDLIASLDQPFLLILDGVTDPHNLGACLRSADAAGVHAVIVPKDRSAQLNATAKKVACGAAESVPLIRVTNLARTMRMLQEENIWIVGTAGEADHTLYQSKMTGRLALVMGAEGEGMRRLTREHCDELISIPMAGSVSSLNVSVATGICLFEAVRQRS | soluble |
| MRVGIVGAGPAGVAAAVFLRRYNVHVTVFEKNRVGGLLRNAHLVENIPVLPPASGEEICKTLEKRLFESGAELIWEEVVKVENEKILTEREIHSFDYVIVASGTIPRRIPEFEVSEKVVYEFIDLPEFEKLAIYGAGDAAFDSALNALVRGKEVHLFNRGSRIRALPLLVERAKKYEKFYYHERCPILKVEEESKMVKLKTEHGVFTFDALLLSVGRLPNTSFVEPGERNFIVGDARGGFRQVSIAMGSAIETAMEILRREGTVSATLPLKEGLLNPNGEHQAG | soluble |
| MARNPEEAQRVVIPLGSEEALAFLGQADRNLKRLRSLFRTYLGDEVRLVSRGEQVEVLGPPEAVEKAERALRDLLALLRQGAELDEATLEQAVRLAAEGEGLYQATEPELELQLPGRLRPKTPGQKRYVEAIARHDITFGIGPAGTGKTYLAVAMAVSHLRARRVKRIILTRPAVEAGEKLGFLPGDIQAKVDPYLRPLYDALFDMIDAERFEQYLQSGIIEVAPLAFMRGRTLNDAFIILDEAQNTTPEQMKMFLTRMGFSSKMVITGDVTQIDLPKHQRSGLVEAIRILKGIEGIAFVHFKESDVVRHPLVARIIKAYEEAERGGGGAQ | soluble |
| MNQKMIIGNAEAICLPELGITHLEARIDTGAQTSSLHVDNIDCFEKDGQSYVAFDLHPDVYHLEQVVRCTAKLKANRKVKSSNGTFEHRCVITTMLRLGDQEWPIDITLTNREKMTYMMLLGRQGMADKVLVDPSQSHLLAS | not soluble |
| MPVLSIISCRMFEDELAHIISSDKEMKQLIVVENKDSFGLLRKLRSDNCLPRTSPLDRVPFLLGNGHGSGFMTISKPLLILPFFRKIHEKMKIKAAQELTVVVNLLKLGLHDDIEILRSEVYKNIKEMTSFSDGILLFYCSCGGAFENLEENCLEFDCPLYWFKDGNEEVVVDCISAAIGGNAAYDELMYTCRGTGALYFTSMWASSWKEMREERKKSRNFNENYLKDPRYSRVVKLDTGLSYDPDFHKNVRDFARTFDMEIIEVKGSVELAEKSYRTAKKGVVQHTLKLEHHHHHH | not soluble |
| MPDNLSAIFGTILDYAEEVAAGTSNENDERPPRTSLTKKQQKAVSILRNFSTNDQKQEISFQELSQNVLDDWDISNIKSSSVQQLVELLNLPRVQGVLWAAQEISAGRFAPQLPDVPFEVDEDDGVAVKIVRIVRRGEPLGATIKCERGKVYVARIMANGVADRSGCIQEGDRVLEVNGITVADKEPREIVKLLDKCDNGIITFKLIPAEINQKLKQKKSSHRYARALFDYDPWQDKRHPCPEAAISFRGGDILEILDEKDQYWWQTRKIGFGALARRKESHDDENRDDSKKVGLVPSEWLQCQSEIPENGIDTSDDFQSFLENHKGRFYESVFRWRNKKKRRRVVVLLGAPGVGRNEIRRQFFKVFADRFTNAIPHTSRPQRPNESDGVNYYFTSRSEMERMIERKEMLEYGEFRDNLYGTALKSVRKASEKGTVLLTPHPLAIENIRTWEFAPIVIFVQPPEFGEFKHTREVYRSQTTRSHSAASSSNISQNTAATSAARAFSDVEIRQIIDNSAQMEQKYRGYCDAIIRNVDLDTTMNELTGLIYQLESKATWMPMKWLDDIGE | not soluble |
| MVYVSNKYLTMSEMKVNAQYILNYLSSNGWTKQAICGMLGNMQSESTINPGLWQNLDEGNTSLGFGLVQWTPASNYINWANSQGLPYKNMDSELKRIIWEVNNNAQWINLRDMTFKEYIKSTKTPRELAMIFLASYERPANPNQPERGDQAEYWYKNLSGGGGGGLQLAQFPMDIINISQGENGSFSHKGTLCIDFVGKTEKYPYYAPCDCTCVWRGDASAYLAWTSDKEVMCADGSVRYITWVNVHESPLPFDVGKKLKKGDLMGHTGIGGNVTGDHWHFNVIDGKEYQGWTKKPDSCLAGTELHIYDVFAVNNVEIINGNGYDWKTSDWQDG | soluble |
| MSLSNKIFTHSLPMRYADFPTLVDALDYAALSSAGMNFYDRRCQLEDQLEYQTLKARAEAGAKRLLSLNLKKGDRVALIAETSSEFVEAFFACQYAGLVAVPLAIPMGVGQRDSWSAKLQGLLASCQPAAIITGDEWLPLVNAATHDNPELHVLSHAWFKALPEADVALQRPVPNDIAYLQYTSGSTRFPRGVIITHREVMANLRAISHDGIKLRPGDRCVSWLPFYHDMGLVGFLLTPVATQLSVDYLRTQDFAMRPLQWLKLISKNRGTVSVAPPFGYELCQRRVNEKDLAELDLSCWRVAGIGAEPISAEQLHQFAECFRQVNFDNKTFMPCYGLAENALAVSFSDEASGVVVNEVDRDILEYQGKAVAPGAETRAVSTFVNCGKALPEHGIEIRNEAGMPVAERVVGHICISGPSLMSGYFGDQVSQDEIAATGWLDTGDLGYLLDGYLYVTGRIKDLIIIRGRNIWPQDIEYIAEQEPEIHSGDAIAFVTAQEKIILQIQCRISDEERRGQLIHALAARIQSEFGVTAAIDLLPPHSIPRTSSGKPARAEAKKRYQKAYAASLNVQESLAEGHHHHHH | soluble |
| MGSDKIHHHHHHMSIEAYDQLAIFAVVARERSFTRAAARLGMSQPALSRAMRQLEERLGIRLLARTTRSVSATEAGEHLLRVVAPRFEEIDTELALLSQFRDKPAGRLRITAGEHPAVTILQPALAKILPDHPDIRVEVIVDYGLTDIVAEGYDAGVRLGEQIAKDMIAVRIGPEVRMAVVGSPDYFARHPRPRTPRDLIRHNCIAIRLPTYGGIFPWEFEKKGEELKVRVEGQLVFNNIAMRLDAALRGLGLTYMPEDLVKAHVREGVLVRVLSDWCPPIPGYHLYYPSRRQSSPAFTVLRDALRYLG | not soluble |
| MAHHHHHHMLQWEWPTSLCAERRELIRAAVERAIRNSMAEGSDGQIRGTVNVDELNLGSNPPEVTLSGIRMLSAERTVIMVKVRYTGDFFIRLSGLEVNLDMVGSGAEEADNNFALPFFCPFEMTLRDILIDGMVAIEILQELEENVQWGKCADVPVAPLATTVRSRKNTNGMRPPCRAGTPSTRHRSGYGVLLGGGGRGAMRLPGVLDSIDGSLSSVDMEGASEGHPRHSLRVRNVSPPFFDILSTKVLVKQRVVKMQLFGDPLKSFRVLSNFGSVQGADCKAEQTIRKLIKPAIEQLIEEGIIFNI | not soluble |
| MAHHHHHHMSDHEMYDNIDAGASQTYPVQAGAIKKNGHVMLKEHPCKVVDYSTSKTGKHGHAKAHIVGIDIFTGRKYEDICPTSHNMDVPVVKRTELQLIDITEDGFVSLLYDNGDTKDDLSLPKDTEGNLDEVAKQIRNLFDNGKSVLVSVLSACGQEKIIAAKELSS | soluble |
| MGSDKIHHHHHHMNAQIKIINTANGYMALCQDTPEDITPAWFSVDFWREKSAVVGSSKGRYTTWFVAFEHSHWVLRHYWRGGMMEKFSKDAYFYTGLENTRAMGELRLLDALYREQFAVPKPIAANIVRDGLFYRADIIIERVDGAEDLVAKLTKGTMTQAQWHALGATIAQFHRRGVYHADLNAKNILWQPQQTDSAQERFYLIDFDRGELKTPNAKWQKANLDRLLRSFNKEQGKQPTLAFTPANWAALLEGYHAVVPKV | not soluble |
| MHHHHHHSSGLVPRGSGMKETAAAKFERQHMDSPDLGTDDDDKMKLQSPEFQSLFTEGLKSLTELFVKENHELRIAGGAVRDLLNGVKPQDIDFATTATPTQMKEMFQSAGIRMINNRGEKHGTITARLHEENFEITTLRIDVTTDGRHAEVEFTTDWQKDAERRDLTINSMFLGFDGTLFDYFNGYEDLKNKKVRFVGHAKQRIQEDYLRILRYFRFYGRIVDKPGDHDPETLEAIAENAKGLAGISGERIWVELKKILVGNHVNHLIHLIYDLDVAPYIGLPANASLEEFDKVSKNVDGFSPKPVTLLASLFKVQDDVTKLDLRLKIAKEEKNLGLFIVKNRKDLIKATDSSDPLKPYQDFIIDSREPDATTRVCELLKYQGEHCLLKEMQQWSIPPFPVSGHDIRKVGISSGKEIGALLQQLREQWKKSGYQMEKDELLSYIKKT | soluble |
| MGSDKIHHHHHHMSLLSVSDVGKAYKTYRSELQRIAHWFFLPTKASSEHWVLKHINFAIEPGEAIGIIGQNGAGKSTLLKMITGTLQPTQGRVQVNGRIAAILELGMGFNPELSGRQNVYHAAGLMGFDVQQINDVIDDIEAFAEIGEYFDEAVRTYSSGMQMRVAFAVATAFRPEILIVDEALSVGDSYFQHKSFERIREFQRLGTSLLIVSHDRGAIQSLCSRALLLENGSIIKDGPPEQVMDYYNALIAEKENSTVQVKQLADGTVQTQSGSGEATIGTVALYDMQGTPVEFVAVGDKVTLSVQVEVHAPIPELVVGYVIKDRLGQHVFGTNTHHLGKAQKALETGEKLEYRFDFEMNLGPGSYSVAVALHANEVHIGSNYEWRDLALVFNVVNTSKPQFVGMAWVPTAVECIR | not soluble |
| MQYSMGIDAGGTYTDSIIIRDSDGKVMDSNKALTTYPDLLAGIKNSIDGLDEQYLKDVKMVSVSTTLATNTILEKNGYPVGLILVGDYEVPERMQAEYYTVVKGGHDHHGAELTSLDMEAVEAFVNKVKDRVSAFAVSSYFSIRNPAHELAIKARLKELGFSVVCGHELSLDLGAYERGITAYLNAQLIPIASQFILSIREEIRRRGMDARLLMLKCDGSVVGINEALEKPIESIFSGPAASLVGASHLSGLETCAVIDVGGTSTDVSMLENGLPELCSEGAVVGGWQTKVKAIRMETSAMGGDSHVWVKNMKINIGPRRVIPLCVAAVKYPGFLEILKKGRIPGTMHLEENIQPTKFFIRTGLEASNLGSYEKELFDRIGDTPASLNDIFWETQKTLSPGLLDSLLRKRLIQAIGFTPTDALHVLGEYRGWNTEASIAGAKLLERYTHKDYIESARALEHHHHHH | not soluble |
| YYHSVIVANLAETAAEKIGANPILARIGAYYHDIGKMKRPHFFTENIRDGKNPHEDITPSLSHLVLNEHVKYGVELARKYRLPLLVEFIIPQHHGTRSQKYFYYKAKQQFEDIPEEEFRYPGPKPQFKEAAIIMLADSVEA | soluble |
